The values below come from patent US20150203556A1 (UAB RESEARCH FOUNDATION, published 2015).

One test concerns the target T1, IL-22 (Homo sapiens (Human), UniProt Q9GZX6 35-179, limits assumed).
T1 construct: also called IL-22 wt
T1 sequence: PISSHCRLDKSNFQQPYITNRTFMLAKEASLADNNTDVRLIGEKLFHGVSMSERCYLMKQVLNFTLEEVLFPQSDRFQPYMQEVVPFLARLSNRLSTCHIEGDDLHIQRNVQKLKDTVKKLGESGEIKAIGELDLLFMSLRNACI
The test is described as follows: SPR, IL-22 as analyte over IL22R1ddq-FCkh (MONO) as ligand. On the technique in general: SPR reads the build-up and loss of mass on a sensor chip optically.

In test [1] the target is T2, IL-20/IL-20R2 binary complex (human, UniProt Q9NYY1 25-176; Q6UXL0 30-230).
T2 construct: also called 20 + 20R2; IL-20+soluble IL-20R2
T2 chain 1: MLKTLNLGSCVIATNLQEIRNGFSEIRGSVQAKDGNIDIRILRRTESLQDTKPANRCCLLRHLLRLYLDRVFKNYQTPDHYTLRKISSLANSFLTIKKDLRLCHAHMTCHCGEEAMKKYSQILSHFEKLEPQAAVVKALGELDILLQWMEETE
T2 chain 2: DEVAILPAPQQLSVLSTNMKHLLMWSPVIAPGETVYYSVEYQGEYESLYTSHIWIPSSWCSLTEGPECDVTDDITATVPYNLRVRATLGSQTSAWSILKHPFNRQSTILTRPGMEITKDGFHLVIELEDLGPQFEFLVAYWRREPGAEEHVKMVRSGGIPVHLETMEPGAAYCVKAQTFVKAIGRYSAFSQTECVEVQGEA
The test is described as follows: SPR co-injection: IL-20 fixed at 250 nM with IL-22R1 (1000-7.81 nM) over amine coupled IL-20R2; 250 nM IL-20 sensorgram subtracted; 1:1 fit, apparent KD (KDapp). Here is the method:
(§1) FIGS. 12A-12H are graphs showing IL19/IL-20 receptor interactions and complex stability. SPR sensorgrams, data fits (black lines), KD values, and residual errors obtained for complexes described at the top of each panel. Panels are labeled as injected soluble proteins, followed by a semicolon (:), then the protein coupled to chip surface, IL-20R1 or IL-20R2. FIGS. 12A and 12B show injection of IL-19 and IL-20 (max conc.=10 μM, 2 fold diluted to 0.625 μM) over IL-20R1. FIGS. 12C and 12D show injection of IL-19 (max conc.=500 nM, 2-fold diluted to 3.91 nM) or IL-20 (max conc.=2000 nM, 2-fold diluted to 62.5 nM) over IL-20R2. FIGS. 12E-12H show IL-19 and IL-20 (fixed at 250 nM) mixed with different concentrations of IL-20R1, or IL-22R1, (max conc.=1000 nM, 2-fold diluted to 7.81 nM) and injected over IL-20R2. To estimate R1 chain affinity/complex stability, the contribution of the ligand was removed by using the 250 nM IL-19, or IL-20, sensorgram as the blank subtraction. All sensorgrams were fit to 1:1 binding models.
(§2) Surface Plasmon Resonance Experiments SPR experiments were performed on Biacore T-100, and T-200, (GE healthcare, Waukesha, Wis.) systems. […] Soluble proteins were injected for 75-90 seconds (30 uL/min) over the surfaces, and the dissociation phase was followed for 75-120 seconds depending on the stability of the complex being analyzed. […]

Test [2] deals with T2, IL-20/IL-20R2 binary complex. The test is described as follows: SPR co-injection: IL-20 fixed at 250 nM with IL-22R1 (1000-7.81 nM) over amine coupled IL-20R2; 250 nM IL-20 sensorgram subtracted; 1:1 fit, apparent value. Here is the method: as §1, §2
Test [3] has as its target T3, IL-20 (human, UniProt Q9NYY1 25-176).
T3 construct: The crystal model holds residues 24-176; also called Interleukin-20; IL-20b
T3 sequence: T2 chain 1
The test can be described thus: SPR (Biacore), IL-20 (2000-62.5 nM) over IL-20R2-fc captured by anti-FC Ab, 1:1 fit.

Test [4] deals with T3, IL-20. The test is described as follows: SPR, IL-20 over IL-20R2 (FIG. 12D). Here is the method:
as §1, §2

Test [5] deals with T3, IL-20. The test can be described thus: SPR, site KD as listed in Table 5.
The target in another test is T4, IL-19 (human, UniProt Q9UHD0 25-177).
T4 construct: also called Interleukin-19; IL-19a
T4 sequence: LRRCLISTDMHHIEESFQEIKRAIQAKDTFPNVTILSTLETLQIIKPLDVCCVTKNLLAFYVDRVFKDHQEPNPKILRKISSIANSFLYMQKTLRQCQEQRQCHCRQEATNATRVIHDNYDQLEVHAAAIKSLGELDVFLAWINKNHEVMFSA
The test can be described thus: SPR (Biacore), IL-19 (500-3.91 nM) over IL-20R2-fc captured by anti-FC Ab, 1:1 fit. How it is done: as §1, with “SPR” for “FIGS. 12A-12H are graphs showing IL19/IL-20 receptor interactions and complex stability. SPR”
(§3) Surface Plasmon Resonance Experiments SPR experiments were performed on Biacore T-100, and T-200, (GE healthcare, Waukesha, Wis.) systems. Soluble IL-20R2 was amine coupled (100-130 RU) to CM5 research grade biacore chips in 10 mM sodium acetate, pH 5.0. IL-20R1-FC and IL-20R2-FC were coupled (60-120 RU) to CM5 chips using an anti-FC Ab coupling kit using the manufacturer's instructions (GE healthcare, Waukesha, Wis.). All binding experiments were performed in running buffer consisting of 10 mM Hepes, pH 7.4, 150 mM NaCl, 0.04% P20, and 0.1 mg/mL bovine serum albumin (Sigma, St. Louis, Mo.). No regeneration was performed between sample injections on IL-20R2 amine-coupled surfaces. […] Soluble proteins were injected for 75-90 seconds (30 uL/min) over the surfaces, and the dissociation phase was followed for 75-120 seconds depending on the stability of the complex being analyzed. […]
IL-19/IL-20R2 and IL-20/IL-20R2 interactions were determined by SPR methods with IL-20R2 attached to a biacore chip by amine coupling, or as an IL-20R2-FC fusion protein.

Test [6] has as its target T5, IL-20 bound on IL-20R2-fc (IL-20/IL-20R2-fc binary complex) (human, UniProt Q9NYY1 25-176). The test is described as follows: SPR co-injection: IL-20 fixed at 250 nM with IL-20R1 (1000-7.81 nM) over IL-20R2-fc; 250 nM IL-20 sensorgram subtracted; 1:1 fit, apparent value. How it is done: as §1, §2
Test [7] has as its target T6, IL-19 bound on IL-20R2-fc (IL-19/IL-20R2-fc binary complex) (human, UniProt Q9UHD0 25-177). The test is described as follows: SPR co-injection: IL-19 fixed at 250 nM with IL-20R1 (1000-7.81 nM) over IL-20R2-fc; 250 nM IL-19 sensorgram subtracted; 1:1 fit, apparent value. Here is the method:
as §1, §2

Test [8] has as its target T5, IL-20 bound on IL-20R2-fc …. The test can be described thus: SPR co-injection: IL-20 fixed at 250 nM with IL-20R1 (1000-7.81 nM) over IL-20R2-fc; 250 nM IL-20 sensorgram subtracted; 1:1 fit, apparent KD (KDapp). How it is done: (§4) To estimate R1 chain affinity/complex stability, the contribution of the ligand was removed by using the 250 nM IL-19, or IL-20, sensorgram as the blank subtraction. All sensorgrams were fit to 1:1 binding models.
(§5) To estimate the stability of IL-20 (IL-20/IL-20R1/IL-20R2 and IL-20/IL-22R1/IL-20R2) and IL-19 (IL-19/IL-20R1/IL-20R2) ternary complexes (FIG. 1), IL-19, or IL-20, was co-injected with soluble IL-20R1 over a biacore chip coupled with IL-20R2. […] The same results, although with different KDapp values, were obtained by evaluating ternary complex stability by injecting soluble IL-20R2 and IL19, or IL-20, over biacore chip surfaces of IL-20R1 or IL-22R1 (FIG. 13).
as §3, with “Wis.).” for “Wis.). All binding experiments were performed in running buffer consisting of 10 mM Hepes, pH 7.4, 150 mM NaCl, 0.04% P20, and 0.1 mg/mL bovine serum albumin (Sigma, St. Louis, Mo.). No regeneration was performed between sample injections on IL-20R2 amine-coupled surfaces.”

Test [9] has as its target T6, IL-19 bound on IL-20R2-fc …. The test is described as follows: SPR co-injection: IL-19 fixed at 250 nM with IL-20R1 (1000-7.81 nM) over IL-20R2-fc; 250 nM IL-19 sensorgram subtracted; 1:1 fit, apparent KD (KDapp). Here is the method:
as §4, §5
as §3, with “Wis.).” for “Wis.). All binding experiments were performed in running buffer consisting of 10 mM Hepes, pH 7.4, 150 mM NaCl, 0.04% P20, and 0.1 mg/mL bovine serum albumin (Sigma, St. Louis, Mo.). No regeneration was performed between sample injections on IL-20R2 amine-coupled surfaces.”

What is called koff is a measure of how fast the partners let go of each other. For orientation: kon means the rate constant with which the complex forms.

B1: IL22R1ddq-FCkh (MONO) (Fc fusion)
chain: AHAPEDPSDLLQHVKFQSSNFENILTWDSGPEGTPDTVYSIEYKTYGERDWVAKKGCQRITRKSCDLTVETGDLQELYYARVTAVSAGGRSATKMTDRFSSLQHTTLKPPDVTCISKVRSIQMIVHPTPTPIRAGDGHRLTLEDIFHDLFYHLELQVNRTYQMHLGGKQREYEFFGLTPDTEFLGTIMICVPTWAKESAPYMCRVKTLPDRTWTYSGSGGGGPSVFIFPPKIKDVLMISLSPIVTCVVVDVSEDDPDVQISWFVNNVEVHTAQTQTHREDYNSTLRVVSALPIQHQDWMSGKEFKCKVNNKDLPAPIERTISKPKGSVRAPQVYVLPPPCEEMTKKQVTLYCMVTDFMPEDIYVEWTNNGKTELNYKNTEPVLDSDGSYFMYSKLRVEKKNWVERNSYSCSVVHEGLHNHHTTKSFSRTPGKGLEASGGLNDIFEAQKIEWHEGTGHHHHHH
B1 had a Kd with IL-22 of 3.34 nM.

B2: IL-22R1 (sIL-22R1DDQ) (receptor)
chain: HAPEDPSDLLQHVKFQSSNFENILTWDSGPEGTPDTVYSIEYKTYGERDWVAKKGCQRITRKSCDLTVETGDLQELYYARVTAVSAGGRSATKMTDRFSSLQHTTLKPPDVTCISKVRSIQMIVHPTPTPIRAGDGHRLTLEDIFHDLFYHLELQVNRTYQMHLGGKQREYEFFGLTPDTEFLGTIMICVPTWAKESAPYMCRVKTLPDRT
For B2, in test [1], the Kd turned out to be 1360 nM. In addition, in test [2], the dissociation rate constant (koff) is 0.0893 s⁻¹ and the kon is 65500 M⁻¹ s⁻¹.

B3: IL-20R2-FC (Fc fusion)
chain: DEVAILPAPQQLSVLSTNMKHLLMWSPVIAPGETVYYSVEYQGEYESLYTSHIWIPSSWCSLTEGPECDVTDDITATVPYNLRVRATLGSQTSAWSILKHPFNRQSTILTRPGMEITKDGFHLVIELEDLGPQFEFLVAYWRREPGAEEHVKMVRSGGIPVHLETMEPGAAYCVKAQTFVKAIGRYSAFSQTECVEVQGEAGSGGGGPSVFIFPPKIKDVLMISLSPIVTCVVVDVSEDDPDVQISWFVNNVEVHTAQTQTHREDYNSTLRVVSALPIQHQDWMSGKEFKCKVNNKDLPAPIERTISKPKGSVRAPQVYVLPPPEEEMTKKQVTLTCMVTDFMPEDIYVEWTNNGKTELNYKNTEPVLDSDGSYFMTSKLRVEKKNWVERNSYSCSVVHEGLHNHHTTKSFGGCGTPASGGLNDIFEAQKIEWHE
notes: also called IL-20-FC
Regarding B3, the Kd with IL-20 [3] is 686 nM; with IL-20 [4], 697 nM; with IL-20 [5] it was 687 nM; with IL-19, 105 nM. For the same molecule, the koff with IL-20 [3] turned out to be 0.219 s⁻¹; with IL-19 it was 0.0242 s⁻¹. The kon in the test with IL-20 [3] stood at 319000 M⁻¹ s⁻¹; in the test with IL-19, 230000 M⁻¹ s⁻¹.

B4: soluble IL-20R1 (receptor)
chain: VPCVSGGLPKPANITFLSINMKNVLQWTPPEGLQGVKVTYTVQYFIYGQKKWLNKSECRNINRTYCDLSAETSDYEHQYYAKVKAIWGTKCSKWAESGRFYPFLETQIGPPEVALTTDEKSISVVLTAPEKWKRNPEDLPVSMQQIYSNLKYNVSVLNTKSNRTWSQCVTNHTLVLTWLEPNTLYCVHVESFVPGPPRRAQPSEKQCARTLKDQSS
As for B4, the koff in test [6] was determined as 0.0171 s⁻¹; in test [7], 0.139 s⁻¹. The kon was 53700 M⁻¹ s⁻¹ in test [6] and 44500 M⁻¹ s⁻¹ in test [7]. The Kd stood at 319 nM in [8] and 3120 nM in test [9].
